The record followed here is patent publication US20260201008A1, “SECRETIN-DERIVED GLP1R SELECTIVE AGONISTS” (GUBRA A/S, priority 2023, published 2026).

Test [1] concerns the target human GLP-1 receptor (hGLP1R) (human, UniProt P43220 24-463). In words: cell-based or functional assay.
Test [2] deals with human secretin receptor (hSCTR) (human, UniProt P47872 23-440). Briefly: cell-based or functional assay.

Square brackets hold non-standard residues; d marks the D form. Ends that are not written are not given here. Aib = CC(C)(N)C(=O)O

Chain of human secretin receptor (hSCTR) (P47872 23-440): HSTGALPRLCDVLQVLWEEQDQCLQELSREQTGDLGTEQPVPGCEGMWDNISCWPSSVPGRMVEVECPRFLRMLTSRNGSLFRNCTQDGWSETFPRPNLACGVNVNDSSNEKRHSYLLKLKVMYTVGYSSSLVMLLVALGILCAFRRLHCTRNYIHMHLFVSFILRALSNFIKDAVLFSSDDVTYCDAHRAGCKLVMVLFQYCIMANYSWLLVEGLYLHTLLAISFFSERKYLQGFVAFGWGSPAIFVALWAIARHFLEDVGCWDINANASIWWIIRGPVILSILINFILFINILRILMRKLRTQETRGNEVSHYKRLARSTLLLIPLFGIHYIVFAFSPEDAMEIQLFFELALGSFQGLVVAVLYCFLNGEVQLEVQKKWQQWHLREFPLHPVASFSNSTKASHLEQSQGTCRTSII

B1: SEQ ID NO: 127 (peptide)
peptide: H[Aib]EGTFTSDPSWLLEGAALQRFIQWLV-NH2
modifications: N-terminus assumed
SMILES: CC[C@H](C)[C@H](NC(=O)[C@H](Cc1ccccc1)NC(=O)[C@H](CCCNC(=N)N)NC(=O)[C@H](CCC(N)=O)NC(=O)[C@H](CC(C)C)NC(=O)[C@H](C)NC(=O)[C@H](C)NC(=O)CNC(=O)[C@H](CCC(=O)O)NC(=O)[C@H](CC(C)C)NC(=O)[C@H](CC(C)C)NC(=O)[C@H](Cc1c[nH]c2ccccc12)NC(=O)[C@H](CO)NC(=O)[C@@H]1CCCN1C(=O)[C@H](CC(=O)O)NC(=O)[C@H](CO)NC(=O)[C@@H](NC(=O)[C@H](Cc1ccccc1)NC(=O)[C@@H](NC(=O)CNC(=O)[C@H](CCC(=O)O)NC(=O)C(C)(C)NC(=O)[C@@H](N)Cc1c[nH]cn1)[C@@H](C)O)[C@@H](C)O)C(=O)N[C@@H](CCC(N)=O)C(=O)N[C@@H](Cc1c[nH]c2ccccc12)C(=O)N[C@@H](CC(C)C)C(=O)N[C@H](C(N)=O)C(C)C
For the molecule B1, in test [1], the “pEC50 hGLPR1” value was 8.1 -log M. Moreover, the “pEC50 hSCTR” value in test [2] is 5.4 -log M.

B2: SEQ ID NO: 123 (peptide)
peptide: H[Aib]EGTFTSDPSGLLEGAALQRFIQWLV-NH2
modifications: N-terminus assumed
SMILES: CC[C@H](C)[C@H](NC(=O)[C@H](Cc1ccccc1)NC(=O)[C@H](CCCNC(=N)N)NC(=O)[C@H](CCC(N)=O)NC(=O)[C@H](CC(C)C)NC(=O)[C@H](C)NC(=O)[C@H](C)NC(=O)CNC(=O)[C@H](CCC(=O)O)NC(=O)[C@H](CC(C)C)NC(=O)[C@H](CC(C)C)NC(=O)CNC(=O)[C@H](CO)NC(=O)[C@@H]1CCCN1C(=O)[C@H](CC(=O)O)NC(=O)[C@H](CO)NC(=O)[C@@H](NC(=O)[C@H](Cc1ccccc1)NC(=O)[C@@H](NC(=O)CNC(=O)[C@H](CCC(=O)O)NC(=O)C(C)(C)NC(=O)[C@@H](N)Cc1c[nH]cn1)[C@@H](C)O)[C@@H](C)O)C(=O)N[C@@H](CCC(N)=O)C(=O)N[C@@H](Cc1c[nH]c2ccccc12)C(=O)N[C@@H](CC(C)C)C(=O)N[C@H](C(N)=O)C(C)C
For the molecule B2, the “pEC50 hGLPR1” value in test [1] was 8 -log M. Moreover, the “pEC50 hSCTR” value in test [2] was 5.2 -log M.

B3: SEQ ID NO: 124 (peptide)
peptide: H[Aib]EGTFTSDPSRLLEGAALQRFIQWLV-NH2
modifications: N-terminus assumed
SMILES: CC[C@H](C)[C@H](NC(=O)[C@H](Cc1ccccc1)NC(=O)[C@H](CCCNC(=N)N)NC(=O)[C@H](CCC(N)=O)NC(=O)[C@H](CC(C)C)NC(=O)[C@H](C)NC(=O)[C@H](C)NC(=O)CNC(=O)[C@H](CCC(=O)O)NC(=O)[C@H](CC(C)C)NC(=O)[C@H](CC(C)C)NC(=O)[C@H](CCCNC(=N)N)NC(=O)[C@H](CO)NC(=O)[C@@H]1CCCN1C(=O)[C@H](CC(=O)O)NC(=O)[C@H](CO)NC(=O)[C@@H](NC(=O)[C@H](Cc1ccccc1)NC(=O)[C@@H](NC(=O)CNC(=O)[C@H](CCC(=O)O)NC(=O)C(C)(C)NC(=O)[C@@H](N)Cc1c[nH]cn1)[C@@H](C)O)[C@@H](C)O)C(=O)N[C@@H](CCC(N)=O)C(=O)N[C@@H](Cc1c[nH]c2ccccc12)C(=O)N[C@@H](CC(C)C)C(=O)N[C@H](C(N)=O)C(C)C
Turning to B3, in test [1], the “pEC50 hGLPR1” value was 8.6 -log M. Besides, the “pEC50 hSCTR” value in test [2] is 5.3 -log M.
In the case of H[Aib]EGTFTSDPSYLKEEA[Aib]LQRFLEHLV-NH2 (not fully specified (residue 14)) [SEQ ID NO: 121], the “pEC50 hGLPR1” value in test [1] is 8.6 -log M. Further, the “pEC50 hSCTR” value in test [2] was 4.4 -log M.

B4: SEQ ID NO: 118 (peptide)
peptide: H[Aib]EGTFTSDISWLLEGAALQRFIQWLV-NH2
modifications: N-terminus assumed
SMILES: CC[C@H](C)[C@H](NC(=O)[C@H](Cc1ccccc1)NC(=O)[C@H](CCCNC(=N)N)NC(=O)[C@H](CCC(N)=O)NC(=O)[C@H](CC(C)C)NC(=O)[C@H](C)NC(=O)[C@H](C)NC(=O)CNC(=O)[C@H](CCC(=O)O)NC(=O)[C@H](CC(C)C)NC(=O)[C@H](CC(C)C)NC(=O)[C@H](Cc1c[nH]c2ccccc12)NC(=O)[C@H](CO)NC(=O)[C@@H](NC(=O)[C@H](CC(=O)O)NC(=O)[C@H](CO)NC(=O)[C@@H](NC(=O)[C@H](Cc1ccccc1)NC(=O)[C@@H](NC(=O)CNC(=O)[C@H](CCC(=O)O)NC(=O)C(C)(C)NC(=O)[C@@H](N)Cc1c[nH]cn1)[C@@H](C)O)[C@@H](C)O)[C@@H](C)CC)C(=O)N[C@@H](CCC(N)=O)C(=O)N[C@@H](Cc1c[nH]c2ccccc12)C(=O)N[C@@H](CC(C)C)C(=O)N[C@H](C(N)=O)C(C)C
For the molecule B4, in test [1], the “pEC50 hGLPR1” value is 10.2 -log M. In addition, in test [2], the “pEC50 hSCTR” value is 7.1 -log M.

B5: SEQ ID NO: 122 (peptide)
peptide: H[Aib]EGTFTSDPSELLEGAALQRFIQWLV-NH2
modifications: N-terminus assumed
SMILES: CC[C@H](C)[C@H](NC(=O)[C@H](Cc1ccccc1)NC(=O)[C@H](CCCNC(=N)N)NC(=O)[C@H](CCC(N)=O)NC(=O)[C@H](CC(C)C)NC(=O)[C@H](C)NC(=O)[C@H](C)NC(=O)CNC(=O)[C@H](CCC(=O)O)NC(=O)[C@H](CC(C)C)NC(=O)[C@H](CC(C)C)NC(=O)[C@H](CCC(=O)O)NC(=O)[C@H](CO)NC(=O)[C@@H]1CCCN1C(=O)[C@H](CC(=O)O)NC(=O)[C@H](CO)NC(=O)[C@@H](NC(=O)[C@H](Cc1ccccc1)NC(=O)[C@@H](NC(=O)CNC(=O)[C@H](CCC(=O)O)NC(=O)C(C)(C)NC(=O)[C@@H](N)Cc1c[nH]cn1)[C@@H](C)O)[C@@H](C)O)C(=O)N[C@@H](CCC(N)=O)C(=O)N[C@@H](Cc1c[nH]c2ccccc12)C(=O)N[C@@H](CC(C)C)C(=O)N[C@H](C(N)=O)C(C)C
Take B5: the “pEC50 hGLPR1” value in test [1] was 8.2 -log M. Also, the “pEC50 hSCTR” value in test [2] is 5.3 -log M.

B6: SEQ ID NO: 120 (peptide)
peptide: H[Aib]EGTFTSDISGLLEGAALQRFIQWLV-NH2
modifications: N-terminus assumed
SMILES: CC[C@H](C)[C@H](NC(=O)[C@H](CC(=O)O)NC(=O)[C@H](CO)NC(=O)[C@@H](NC(=O)[C@H](Cc1ccccc1)NC(=O)[C@@H](NC(=O)CNC(=O)[C@H](CCC(=O)O)NC(=O)C(C)(C)NC(=O)[C@@H](N)Cc1c[nH]cn1)[C@@H](C)O)[C@@H](C)O)C(=O)N[C@@H](CO)C(=O)NCC(=O)N[C@@H](CC(C)C)C(=O)N[C@@H](CC(C)C)C(=O)N[C@@H](CCC(=O)O)C(=O)NCC(=O)N[C@@H](C)C(=O)N[C@@H](C)C(=O)N[C@@H](CC(C)C)C(=O)N[C@@H](CCC(N)=O)C(=O)N[C@@H](CCCNC(=N)N)C(=O)N[C@@H](Cc1ccccc1)C(=O)N[C@H](C(=O)N[C@@H](CCC(N)=O)C(=O)N[C@@H](Cc1c[nH]c2ccccc12)C(=O)N[C@@H](CC(C)C)C(=O)N[C@H](C(N)=O)C(C)C)[C@@H](C)CC
For B6, the “pEC50 hGLPR1” value in test [1] was 10.3 -log M. Moreover, the “pEC50 hSCTR” value in test [2] was 6.7 -log M.
The matching figures for H[Aib]EGTFTSDVSFLKE[Aib]AATQRFLEHLV-NH2 (not fully specified (residue 14)) [SEQ ID NO: 13]: 10.5 -log M and 6.5 -log M.

B7: SEQ ID NO: 119 (peptide)
peptide: H[Aib]EGTFTSDISELLEGAALQRFIQWLV-NH2
modifications: N-terminus assumed
SMILES: CC[C@H](C)[C@H](NC(=O)[C@H](Cc1ccccc1)NC(=O)[C@H](CCCNC(=N)N)NC(=O)[C@H](CCC(N)=O)NC(=O)[C@H](CC(C)C)NC(=O)[C@H](C)NC(=O)[C@H](C)NC(=O)CNC(=O)[C@H](CCC(=O)O)NC(=O)[C@H](CC(C)C)NC(=O)[C@H](CC(C)C)NC(=O)[C@H](CCC(=O)O)NC(=O)[C@H](CO)NC(=O)[C@@H](NC(=O)[C@H](CC(=O)O)NC(=O)[C@H](CO)NC(=O)[C@@H](NC(=O)[C@H](Cc1ccccc1)NC(=O)[C@@H](NC(=O)CNC(=O)[C@H](CCC(=O)O)NC(=O)C(C)(C)NC(=O)[C@@H](N)Cc1c[nH]cn1)[C@@H](C)O)[C@@H](C)O)[C@@H](C)CC)C(=O)N[C@@H](CCC(N)=O)C(=O)N[C@@H](Cc1c[nH]c2ccccc12)C(=O)N[C@@H](CC(C)C)C(=O)N[C@H](C(N)=O)C(C)C
Turning to B7, the “pEC50 hGLPR1” value in test [1] was 10.6 -log M. For the same molecule, the “pEC50 hSCTR” value in test [2] is 7.3 -log M.

B8: SEQ ID NO: 125 (peptide)
peptide: H[Aib]EGTFTSDPS[Aib]LLEGAALQRFIQWLV-NH2
modifications: N-terminus assumed
SMILES: CC[C@H](C)[C@H](NC(=O)[C@H](Cc1ccccc1)NC(=O)[C@H](CCCNC(=N)N)NC(=O)[C@H](CCC(N)=O)NC(=O)[C@H](CC(C)C)NC(=O)[C@H](C)NC(=O)[C@H](C)NC(=O)CNC(=O)[C@H](CCC(=O)O)NC(=O)[C@H](CC(C)C)NC(=O)[C@H](CC(C)C)NC(=O)C(C)(C)NC(=O)[C@H](CO)NC(=O)[C@@H]1CCCN1C(=O)[C@H](CC(=O)O)NC(=O)[C@H](CO)NC(=O)[C@@H](NC(=O)[C@H](Cc1ccccc1)NC(=O)[C@@H](NC(=O)CNC(=O)[C@H](CCC(=O)O)NC(=O)C(C)(C)NC(=O)[C@@H](N)Cc1c[nH]cn1)[C@@H](C)O)[C@@H](C)O)C(=O)N[C@@H](CCC(N)=O)C(=O)N[C@@H](Cc1c[nH]c2ccccc12)C(=O)N[C@@H](CC(C)C)C(=O)N[C@H](C(N)=O)C(C)C
Turning to B8, in test [1], the “pEC50 hGLPR1” value is 8.4 -log M. Besides, the “pEC50 hSCTR” value in test [2] was 5 -log M.

B9: SEQ ID NO: 126 (peptide)
peptide: H[Aib]EGTFTSDPSFLLEGAALQRFIQWLV-NH2
modifications: N-terminus assumed
SMILES: CC[C@H](C)[C@H](NC(=O)[C@H](Cc1ccccc1)NC(=O)[C@H](CCCNC(=N)N)NC(=O)[C@H](CCC(N)=O)NC(=O)[C@H](CC(C)C)NC(=O)[C@H](C)NC(=O)[C@H](C)NC(=O)CNC(=O)[C@H](CCC(=O)O)NC(=O)[C@H](CC(C)C)NC(=O)[C@H](CC(C)C)NC(=O)[C@H](Cc1ccccc1)NC(=O)[C@H](CO)NC(=O)[C@@H]1CCCN1C(=O)[C@H](CC(=O)O)NC(=O)[C@H](CO)NC(=O)[C@@H](NC(=O)[C@H](Cc1ccccc1)NC(=O)[C@@H](NC(=O)CNC(=O)[C@H](CCC(=O)O)NC(=O)C(C)(C)NC(=O)[C@@H](N)Cc1c[nH]cn1)[C@@H](C)O)[C@@H](C)O)C(=O)N[C@@H](CCC(N)=O)C(=O)N[C@@H](Cc1c[nH]c2ccccc12)C(=O)N[C@@H](CC(C)C)C(=O)N[C@H](C(N)=O)C(C)C
Take B9: the “pEC50 hGLPR1” value in test [1] was 8.1 -log M. For the same molecule, the “pEC50 hSCTR” value in test [2] was 5.7 -log M.
